Data taken from US20030215854, “Detection of DNA-binding proteins” (published 2003).

What was measured:
NF-kB p50 [1] = biological target: T1, NF-kB p50 (UniProt P19838 P19838:1-433); assay: bead capture with anti-p50 antibody, Luminex; dose dependent; 10 mM Tris pH 7.5, 50 mM NaCl, 2 mM KCl, 2 mM MgCl2, poly dI-dC, room temperature; conditions: tags: Promega E3770; chain copies: 2; duplex with single-stranded 3' tag
Description: P04 Kbfor and KBrev were annealed by first diluting 100 uM oligonucleotide stocks into annealing buffer (40 mM Tris pH 7.5, 100 mM NaCl, and 1 mM EDTA), to give a ratio of 20 nM P04 Kbfor: 1 uM KBrev. 100 ul of the oligonucleotide mix was then heated to 95° C. for 1 minute, and cooled linearly to room temperature over a period of 45 minutes. 1 ul of the annealed mixture containing detection duplexes displaying a single stranded tag sequence was added to 19 ul of transcription factor binding buffer (10 mM tris pH 7.5, 50 mM NaCl, 2 mM KCl, 2 mM MgCl2) containing 250 ng poly dI-dC, and 0.5% bovine serum albumin (fraction V) and incubated with varying amounts of NF-kB P50 protein for 15 minutes at room temperature. 1800 beads suspended in 25 ul of transcription factor binding buffer containing 0.35% BSA was added to appropriate reactions and incubated 30 minutes at room temperature. Following the hybridization of DNA binding protein-detection duplex complexes to bead surfaces, 25 ul of transcription factor binding buffer containing (0.1 ug) of NF-kB P50 specific primary antibody (Santa Cruz Biotechnolgy Cat #SC-114) was added to the detection duplex-sample-bead mix and incubated for 20 minutes at room temperature in the dark while shaking. […] 25 ul of each assay were read using the Luminex 100 instrumentation.

NF-kB p50 [2] = biological target: T1, NF-kB p50; assay: protection from lambda exonuclease, signal approx 3600 fluorescent units with p50; poly dI-dC; conditions: tags: Promega E3770; chain copies: 2; label: 3' biotin on KBrev; duplex with single-stranded 3' tag

T1 sequence (P19838 1-433, one chain of several): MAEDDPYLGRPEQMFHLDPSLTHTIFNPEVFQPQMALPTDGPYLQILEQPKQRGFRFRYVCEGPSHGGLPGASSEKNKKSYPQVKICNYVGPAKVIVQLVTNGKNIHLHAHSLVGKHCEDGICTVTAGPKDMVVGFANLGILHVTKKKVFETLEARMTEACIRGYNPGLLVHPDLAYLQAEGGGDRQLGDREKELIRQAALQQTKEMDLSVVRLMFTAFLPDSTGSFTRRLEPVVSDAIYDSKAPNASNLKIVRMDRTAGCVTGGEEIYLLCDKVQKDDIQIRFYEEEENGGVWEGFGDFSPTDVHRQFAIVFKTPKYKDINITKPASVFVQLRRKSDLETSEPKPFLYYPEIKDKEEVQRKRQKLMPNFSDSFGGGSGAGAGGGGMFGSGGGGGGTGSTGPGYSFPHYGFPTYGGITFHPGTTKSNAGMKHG

| Binder | binding result (NF-kB p50 [1]) | binding result (NF-kB p50 [2]) |
| --- | --- | --- |
| PO4 Kbfor/KBrev (dsDNA, 5' phosphate on Kbfor) DNA 1: AGTTGAGGGGATCCCCAGGAGCGGCTTATCGGTCTATTCAACTCCCCTAGGGG DNA 2: TCCTGGGGATCCCCTCAACT | binds | – |
| PO4 Kbfor/biotinKBrev (dsDNA, 5' phosphate on Kbfor) DNA 1: AGTTGAGGGGATCCCCAGGAGCGGCTTATCGGTCTATTCAACTCCCCTAGGGG DNA 2: TCCTGGGGATCCCCTCAACT | – | binds |
